Experiment: soluble on expression in E. coli; label from the status in PepcDB or PDB records

Sequence | soluble on expression in E. coli
MTLNPRQSALVELVRTQGSATIEALARHFDVTLQTVRRDVNLLSEAGMLSRFHGGVRIESSTIENIAYRKRQGLHAEGKRRIAEAVARAVPDGCSLLINIGTTTEAIARALLRHRGLRVITNNLHVADILSDNPDCEVIVAGGVVRSRDRGIVGEATLDFIRQFKVDIGLIGISGIEADGTLRDYDFREVRVARAIIEQSREVWLAADSSKFQRQAMVELVHVSRIHRFFTDTQPQEPLAQVLQDAGVRCDVAAQSAGAAAALEHHHHHH | not soluble
SNTPRLSLRTIEPTDYPELAELMDLVFPDVGGSWPRLTIMDLIHQFPDGQICIEDNGKIVGAALTIKVDYNRFSLPHLYTDIITENNVIQNQVTGDAMYGLDVFVHPDYRGLRLGRRLYDARKELCRSKNFKAILAGGRIPNYHQYADELSVAEYIDKVKRRELHDPILSFQLANDFDVKRIMRGYLP | not soluble
KMKLYNFWRSGTSHRLRIALNLKGVPYEYLAVHLGKEEHLKDAFKALNPQQLVPALDTGAQVLIQSPAIIEWLEEQYPTPALLPADADGRQRVRALAAIVGCDIHPINNRRILEYLRKTFGADEAAINAWCGTWISAGFDAYEALLAVDPKRGRYSFGDTPTLADCYLVPQVESARRFQVDLTPYPLIRAVDAACGELDAFRRAAPAAQPDSA | soluble
MLPSISINNTSAAYPESINENNNDEINGLVQEFKNLFNGKEGISTCIKHLLELIKNAIRVNDDPYRSNINNSSVTYIDIGSNDTDHITIGIDNQEPIELPANYKDKELVRTIINDNIVEKTHDINNKEMIFSALKEIYDGDPGFIFDKISHKLRHTVTEFDESGKSEPTDLFTWYGKDKKGDSLAIVIKNKNGNDYLSLGYYDQDDYHIQRGIRINGDSLTQYCSENARSASAWFESSKAIMAESFATGSDHQVVNELNGERLREPNEVFKRLGRAIRYNFQVDDAKFRRDNVKEIISTLFANKVDVDHPENKYKDFKNLEDKVEKRLQNRQTKYQNEINQLSALGVNFDDI | not soluble
MGSDKIHHHHHHMVKTSQLPAVDRTVPLEQISQFAEKVTIFTDELRETILAPRPRKTAPIFKTGEIAEMCNISHSQVQYLATKGDGELPPGTAAGTGRTRTFTLQEARTWVQKVSDIYQTPLVTGTREPEGKIIITAQLKGGSAKTTTTMCLAQGLTLRGRKVLVVDLDPQASLSELCGLYAEKDVSPEDSVLPYIYDQQIEGGLQSRVQSTYWDGLDLIPAHTELIGAEFHLPAMQKIKPGFRFWTVLREGLEPLRKHYDYILMDTSPSLSYMNLNALLAADAMVMPMVPENLDFISSLSFWRLFSDVSKSFIKYEADKKYDFVSLLLSRVDYGRTSSAPIVRAWAQSAYESWLHSIEVPASSVMSTGALAFSTVFDVSSTHSAAKSLQRVRQPIVDYCRWLDEIYAEKWRSAQ | not soluble
KADNSSVEKLVVQVQQLDPVKGNKDVGTVEITESAYGLVFTPHLHGLAQGLHGFHIHQNPSCEPKEKDGKLVAGLGAGGHWDPKETKQHGYPWSDNAHLGDLPALFVEHDGSATNPVLAPRLKKLDEVKGHSLMIHEGGDNHSDHPAPLGGGGPRMACGVIK | soluble
MGSAEQACGCKGARFCALCETTERVKKLRVVEDKHVNYKVFIYDHIRQIAIPTTNLNSQSSLEDIIDESTSCQSVSTDGSIEIDGLTLIHNFLSESEESKILNMIDTVEWAQSQSGRRKQDYGPKVNFKHKKVKTDTFVGMPEYADMLLNKMSEYDVKKLGNYQPFEMCNLEYEEVKKSAIEMHQDDMWIWGNRLIRYEFLFKKVLFN | soluble
MGSDKIHHHHHHMLDQIKAHLLDSINDIVSSANQFVLHPEKDFSRQSQLTMKTMIQAILTMGGNTLAKELLDLDLPVSQSAFVQRRYQIKHQAFKTLFRDITSKIPISDNLPILAVDGSDVILPRNRFDKTTSFQTGPHHTPYNLIHINALYTLEQEIYHDLRIQDNREVDERAAFIDMMKTSSFKQALVIMDRGYESYNVMAHCQERNWSYIIRIRDGNHSMKSGFNLPDTPCFDEAFDLNICRKQTNDMKELYRDFPNQYHFLPHNASFDFLLNSSRKSDPLQFYELHFRMVRLEIKPGFFETLVTNTDYSPEKLKELYAYRWGIETSFRDLKYSIGLTHFHAKKKEGILQEIYARFINFNVCKWLTSHVAIKTSKLKQTYKICFSDAVYACRKFLRNKLTSFQLETYIAKHLSIIRPNRTFQRKIKSKAPVSFTYRVT | not soluble
GPGSMPSAPTSVTAVVQLPPLIDCHVHFREPGLEHKADIASESTAAYYGGITVACDMPNTSPPTQSVAALADKVARAKATAHAHCQLFFFFGATAEAHLQELEELWTNPAHAELKTHCCGLKLYLDNSTGNMKSSLSVVEKSFEMCGRLQIVLVAHCEQSEINDAAAAQHPYDGPASHSLRRPADSEAASVQSAIALARQCRTPLHLAHVSTAQSLDLIREARAADPTLQLTCEVTPHHLFLTTSDYSCCGARVKVNPPVRPPQHHEALWAGLLDGTVDCVGTDHAPHTIAEKDHCDAAAQPPSGMPAIEVVVPLLLTVVAGQWPHPTAAKPSALAAAEHQGRTLTLDDVVRVLHTNPNRIFNLRQPDAPHRSFDLACEWTVRGEELHSKCQWTPYEGWRLRGRVLANE | soluble
TKDFGYSFNANYATNTNEVKALGPGNAPIISTGSVDHAYYITKVGEPIGCYYLLVQDGIFSNEEELKKYPHFSNTQPGDFRFVDVDGDGVMDLDKDRTIVGNYMPDFTYGFGGKVWYKGIDLDFNFQGVYGNEILNLNRRYIDNLEGNTNGTTIALNRWKSADNPGNGQVNRANRKSKGYNGRTSTWHLEDGSYLRLQNVTLGYTLPQNLTRRFFVEKLRVYVSGQNLWTSTNYGGYNPEVNARPSNSLSPGEDYGTYPLAKTFLFGLNITL | not soluble
GMDNWQDITDDRLVRPIHPGEVIADILDDLDINTANFAEILGVSNQTIQEVINGQRSITVDIAIRLGKALGNGPRLWLNLQQKVDLWYALQSHKEEYEQVMTLV | soluble
VKSLFLLVLGNTEISTIPGISVAGATPELTKITPVADAEYLFYEKPLTIDTIPVTPEGHPTPAIITKAARELSNFPILVVRGGTYLAPLIPHVHISNVVGRDFRREPALPEVEVIIERAKLLGKELEKIANEIVIGESTPGGTTTAQAILWALGYEAKTSSASPENPQELKEKVIKEGFKRVGIEKGGLKDKPLEALKEFGDPMIATVLGLSLGFGGDVVLAGGTQMLAVSALLKSLGEDLSRFMIATTRWVVEDPSATFIETAREIGIISYVAELDFSKSKFKGLRDYERGYVKEGVGAGGATWLAV | not soluble
MKEVPMILEICVDDVAGLEAAVRGGADRIELCAALSGGGVTPSAGFMQRAATYGLPVSVMIRPRAGDFVFTHDEADVMKRDIDAARAAGLSGVVLGASRGDGSLDMALLEDLRRHADGMDATLHRAFDVAPDMEEALEAAISLGFPRILTSGGARSALEGVKTLARLSELAKGRIVIMPGAGVRPQSVQALLDSFPITEIHASCSAVPLYDPESRVAKLGFTGAGRKATDEAAVRELKTILSAHHKGGATLLEHHHHHH | soluble
MKRLTERVIIMKGAGEMATGVACRLHRSGFRRILMLEAPSPLAVRRGVSFCEAIHNGRKSVEGIEAVRIENGSALADAWGKGEIPLLADPQGDAVRRMEPDILIDATIAKRNLGIAITDAPLVIALGPGFFAGRDCHLVIETNRGHNLGRLIACGEAEPNTGIPGNIGGYTRERVLRAPADGHFTTEKVIGDQVSKGDVVGIVGTNTVTASIDGILRGLIRPGTHVTTGLKIGDIDPRGDTAYCHTISEKARALGGSVLEAILTVYNQLEHHHHHH | not soluble
MGSDKIHHHHHHAACQGKPLPNTAMHSDAPTEWSFNFFTPKALPAVVTFAAILDVDGNDYRFNTLNSTPDLPGVIGEWNDKDRAPVGYWNHVKRPPRHIIFCWDSIIDKKVYETHLTIPKSVLEQMLMPSKYKDYRGRIAWYNRMQIGLAPEGKVAVWLQGSGSESNYRVTPSVLKTVSGNKLDICKDITRSDFSYGYDKDIIDFIKGKHYPYGNW | not soluble
KPPDPPNRVPEKKVVETSAFGHHVQLVNREGKAVGFIEIKESDDEGLDIHISANSLRPGASLGFHIYEKGSCVRPDFESAGGHFNPLNKEHGFNNPMGHHAGDLPNLEVGADGKVDVIMNAPDTSLKKGSKLNILDEDGSAFIIHEQADDYLTNPSGNSGARIVCGALLGNNEKQ | soluble
MGSDKIHHHHHHMKVIKRLERYLSAAFSLGRIKSMSKDAQREIAELRLELGTLSQELKHTRQETERMWAWMRRHEALADDLVSVSRREAEVLKRTGQSDTALLLRMFSDLSRRIDGGESGRPDEKAPSSNGLPSSTGFEMFKDAFYHRFENQWRGAPEEISQRLKVYLPDVEAAWARAENKPIFDIGCGRGEWLGLLRQHGMEGIGFDTNAVQIKEGQAAGLDLRLGDALEALAQAEDNSLSVISAHHLIEHLPFDSVAWLTREAGRVLAPGGLLLFETPNTRNVLVGATTFYTDPTHLKPMPEQVMGVLLETAGFEPVDIRHINPHERLGEFLDRPGFDNELAQLMFGPQDLAILGIKSKDK | not soluble
MKEQKISPISVLDQSPMFVSGVMQRMYRNRAQAELCRQNQMTLEMASALAALEEFQPMSQQALADAVLTERSVAKRMVDNLEKRGFVCVSKSEANQRLKMLSLTKEGEATIKKVHQIMRNLQREFFSCLSEDESAEFFRLVRKMTLANNS | not soluble
MGSDKIHHHHHHMEEFEGEAIVEAENVVSIMLRREAAERADEILHFSYWSGEIKELDAPGYLDRWQKKCYHATCSLDEGEILLVVGPPGSGKTTFIAEAARKLSEEERVWVTSNTNIAVDNVLEKLERALRIGHPSKITAGVRRHSVEYNLLSGIRFSDYREYASKVAEAYREIARIQNDMIRKGKIVVGSTILKGMMSALKNYDFDTVIIDEASNTCISTALLALEKAEKAVVVGDPYQLPPVYEVGGHKAAKFSAYNFLINIYGKNLWLRRHYRSNAKIAEFAARHVYGFLEIDEKCRRIKIEPCKTTIPEVGDPEKPLVFIDCNGVERREGRSKVNEEEAEVVAMIAEELAECVGEENVGVITPYVKQAELIRGILSEFGVMVEVSTVHSYQGREKDVVIYSITATGNPYFASEKRLFNVALTRARKKFIAVGNSKALEGKNLLLTRFMVAAIKEGGFVRLR | not soluble
ATMPLSPLLTAVIETTLNTLINDDPALGRKLLRLKGKVISLHLRELNQSLTFVFSQRIDVMTGFEGQPDCYLALNLSILPQLREQANITQLIKQDKLELEGDIQLAQKFSELMTDCKPDVEEWLSRITGDVVAHSVVHGVKSIVGALKQQAHKHQNHLAQVLTEEWRIAPPPLEIAYFCDQVDDVKSHAARLEARLNQLLEKA | not soluble
MSPEDAITRAELLRRREAGEVTLVDVRPHEEYQAGHIPGAINIPIAELADRLAELAGDRDIVAYCRGAYCVMAPDAVRIARDAGREVKRLDDGMLEWRLAGLPVDEGALEHHHHHH | not soluble
MEQVFAPWRIEWVERDDTTDDDVDCVFCAFPGREHARQHLVVARTDHAAVMLNNYPYNPGHCMVIPDVHTGDYGDLDADTLLDHARLKQATLDALDAALGPDAFNTGLNLGGGAAGGSIGDHLHTHVVPRWNGDTNFMPVISDTKVIVEALDDTYDRLHDAFLARPDATEAPTGAVFVDFNLEHHHHHH | not soluble
AIACGDCVEKEYPNRGNTCLENGSFLLNFTGCAVCSKRDFMLITNKSLKEEDGEEIVTYDHLCKNCHHVIARHEYTFSIMDEFQEYTMLCLLCGKAEDTISILPDDPRQMTLLF | soluble
